Columns and labels:
[1] = target: C. reinhardtii axonemal tubulin purified from the combined cyc1-cyc5 fractions (CP/B tubulin) (C. reinhardtii); experiment: dynamic microtubule assay by IRM with mean-squared displacement (MSD) analysis; MT ends tracked with FIESTA; quadratic fit to the first 15 s of MSD against time; estimated rate constants of tubulin dimer binding and unbinding at the growing end
[2] = target: C. reinhardtii axonemal tubulin purified from the combined cyc1-cyc5 fractions (CP/B tubulin) (C. reinhardtii); experiment: dynamic microtubule assay by interference reflection microscopy (IRM); label-free; tubulin at different concentrations in BRB80 with oxygen scavengers, 0.1 mg/ml casein, 1 mM dithiothreitol and 1 mM GTP, 28 °C; extensions grown from TAMRA-labeled GMPCPP-stabilized bovine brain MT seeds held on the coverslip by anti-TAMRA antibodies; constants from linear regression of growth rate against tubulin concentration; tubulin dimer onto the microtubule end

koff, minus end (MSD analysis) [1]: 228 s⁻¹ | koff, plus end (MSD analysis) [1]: 341 s⁻¹ | kon, minus end (MSD analysis) [1]: 2.6e+07 M⁻¹ s⁻¹ | kon, plus end (MSD analysis) [1]: 3.86e+07 M⁻¹ s⁻¹ | kon[Tub], minus end (MSD analysis) [1]: 234 s⁻¹ | kon[Tub], plus end (MSD analysis) [1]: 348 s⁻¹ | koff, minus end [2]: 1.16 s⁻¹ | koff, plus end [2]: 0.785 s⁻¹ | kon, minus end [2]: 430000 M⁻¹ s⁻¹ | kon, plus end [2]: 540000 M⁻¹ s⁻¹ | x-intercept (extrapolated tubulin concentration for growth), minus end [2]: 2.58 µM | x-intercept (extrapolated tubulin concentration for growth), plus end [2]: 1.35 µM
Substance: C. reinhardtii axonemal tubulin purified from the combined cyc1-cyc5 fractions (CP/B tubulin) (complex)

Source: publication PMC6479064
